In general, stoichiometry N refers to the number of molecules, sites or subunits per partner or assembly.

In experiment [1] the target is LARGE1ΔTM (UniProt O95461). Put plainly: SEC-MALS.
Experiment [2] addresses LARGE1ΔTM (UniProt O95461). Put plainly: SAXS.
Experiment [3] deals with LARGE1ΔTM treated with PNGase F (UniProt O95461). Put plainly: SEC-MALS.
Experiment [4] has as its target LARGE2ΔTM (UniProt Q8N3Y3). Put plainly: SEC-MALS. On the technique in general: In gel filtration, larger molecules generally elute earlier.
For experiment [5], the target named is LARGE2ΔTM (UniProt Q8N3Y3). Nature of the experiment: SAXS.
The target in experiment [6] is LARGE2ΔTM treated with PNGase F (UniProt Q8N3Y3). Put plainly: SEC-MALS.

LARGE1ΔTM, sequence (O95461 34-756, stated change not applied): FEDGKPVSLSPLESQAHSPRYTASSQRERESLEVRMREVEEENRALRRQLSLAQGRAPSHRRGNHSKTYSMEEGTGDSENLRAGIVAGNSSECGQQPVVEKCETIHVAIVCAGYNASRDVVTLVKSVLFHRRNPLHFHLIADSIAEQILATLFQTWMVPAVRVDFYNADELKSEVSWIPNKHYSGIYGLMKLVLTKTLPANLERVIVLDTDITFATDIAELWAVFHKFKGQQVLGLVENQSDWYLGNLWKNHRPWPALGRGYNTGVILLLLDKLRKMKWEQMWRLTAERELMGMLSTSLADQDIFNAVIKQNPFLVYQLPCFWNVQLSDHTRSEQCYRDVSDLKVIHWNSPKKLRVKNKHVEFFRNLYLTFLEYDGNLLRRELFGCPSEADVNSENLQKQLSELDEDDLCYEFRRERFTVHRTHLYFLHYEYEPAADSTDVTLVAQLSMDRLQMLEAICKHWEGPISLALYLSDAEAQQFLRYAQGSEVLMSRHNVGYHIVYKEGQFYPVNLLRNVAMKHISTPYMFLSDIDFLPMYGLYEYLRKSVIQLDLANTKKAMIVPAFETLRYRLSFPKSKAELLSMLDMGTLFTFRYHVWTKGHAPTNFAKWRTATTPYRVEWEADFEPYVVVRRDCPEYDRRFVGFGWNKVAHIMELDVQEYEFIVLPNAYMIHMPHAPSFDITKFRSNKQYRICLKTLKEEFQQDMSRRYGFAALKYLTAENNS
LARGE2ΔTM, sequence (Q8N3Y3 whole entry, stated change not applied): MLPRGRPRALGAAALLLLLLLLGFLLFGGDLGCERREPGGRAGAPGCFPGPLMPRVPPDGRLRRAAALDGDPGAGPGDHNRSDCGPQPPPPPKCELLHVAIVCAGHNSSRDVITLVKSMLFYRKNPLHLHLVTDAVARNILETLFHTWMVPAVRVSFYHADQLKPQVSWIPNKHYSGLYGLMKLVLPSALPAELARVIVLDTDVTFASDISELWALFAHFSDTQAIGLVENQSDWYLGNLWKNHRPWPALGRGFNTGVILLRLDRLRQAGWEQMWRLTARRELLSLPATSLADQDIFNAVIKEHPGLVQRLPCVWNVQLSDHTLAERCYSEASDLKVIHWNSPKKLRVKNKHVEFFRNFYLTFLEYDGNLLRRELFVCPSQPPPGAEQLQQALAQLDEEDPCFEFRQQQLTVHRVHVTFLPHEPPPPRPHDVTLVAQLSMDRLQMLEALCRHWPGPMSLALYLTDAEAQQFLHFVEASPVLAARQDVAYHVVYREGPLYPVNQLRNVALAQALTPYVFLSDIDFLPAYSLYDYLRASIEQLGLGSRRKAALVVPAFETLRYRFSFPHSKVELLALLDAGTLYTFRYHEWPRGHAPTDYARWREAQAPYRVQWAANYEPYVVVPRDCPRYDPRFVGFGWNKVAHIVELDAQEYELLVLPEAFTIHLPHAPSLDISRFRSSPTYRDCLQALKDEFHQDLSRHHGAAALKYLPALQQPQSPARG

“LARGE1ΔTM (from UniProt O95461 34-756) (enzyme)”: the stoichiometry N with LARGE1ΔTM [1] and in the experiment with LARGE1ΔTM [2] was 2 throughout. Substance “LARGE1ΔTM treated with PNGase F (from UniProt O95461 34-756) (enzyme)” displayed a stoichiometry N in experiment [3] of 2. “LARGE2ΔTM (from UniProt Q8N3Y3 1-721) (enzyme)”: the stoichiometry N with LARGE2ΔTM [4] and with LARGE2ΔTM [5] was 2 throughout.

As for “LARGE2ΔTM treated with PNGase F (from UniProt Q8N3Y3 1-721) (enzyme)”, the stoichiometry N in experiment [6] is 2.

The values above are taken from article doi:10.1101/2022.05.12.491222.
